According to the DeepSol protein solubility set:

Test: soluble on expression in E. coli; label from the status in PepcDB or PDB records
With “MKDRFELVSKYQPQGDQPKAIEKLVKGIQEGKKHQTLLGATGTGKTFTVSNLIKEVNKPTLVIAHNKTLAGQLYSEFKEFFPNNAVEYFVSYYDYYQPEAYVPQTDTFIEKDASINDEIDKLRHSATSALFERRDVIIIASVSCIYGLGSPEEYREMVVSLRTEMEIERNELLRKLVDIQYARNDIDFQRGTFRVRGDVVEIFPASRDEHCVRVEFFGDEIERIREVDALTGEILGDRDHVAIFPASHFVTRAEKMEKAIQNIEKELEEQLKVMHENGKLLEAQRLEQRTRYDLEMMREMGFCSGIENYSRHLTLRPPGSTPYTLLDYFPDDFMIVVDESHVTIPQVRGMFNGDQARKQVLVDHGFRLPSALDNRPLRFEEFEKHMHNIVYVSATPGPYEIEHTDEMVEQIIRPTGLLDPLIDVRPIEGQIDDLIGEIQARIERNERVLVTTLTKKMSEDLTDYLKEIGIKVNYLHSEIKTLERIEIIRDLRLGKYDVLVGINLLREGLDIPEVSLVAILDADKEGFLRSERSLIQTIGRAARNAEGRVIMYADKITKSMEIAINETKRRREQQERFNEEHGITPKTINKEIRDVIRATVAAEDKAEYKTKAAPKLSKMTKKERQKVVEQMEHEMKEAAKALDFERAAELRDLLLELKAEG” the “soluble on expression in E. coli” value was “soluble”.
With “MAVKHASAPKAYINITGLGFAKLTKEGAELKYSDITKTRGLQKIGVETGGELKTAYADGGPIESGNTDGEGKISLQMHAFPKEIRKIVFNEDYDEDGVYEEKQGKQNNYVAVWFRQERRDGTFRTVLLPKVMFTNPKIDGETAEKDWDFSSEEVEGEALFPLVDNKKSVRKYIFDSANMTNHGGDGEKGEEAFLKKILGEEYTGNVTEDNEETLLEHHHHHH” the “soluble on expression in E. coli” value was “soluble”.
In the case of “MGSDKIHHHHHHMSAFSVEKIGLQDSQQFSKLFIDYLAQQEHIQPLYTFYPDMAGLETAIEKRSKQPINRTVLVERLKAQYKDLPVSEKVQQNIERLASEHTFTITTGHQLCLGTGPLYLILKTLSCVKLCEALKTKHADNEFVPVFWMASEDHDAAEINHFYVFGKKYTWETTQTGAVGRFTTTGISEVLETIKDIPAWLKDAYQSSVTLAEATRKVMHQLFAEYGVVVIDGDDAALKKEFTAVIEKELFEQPAVAVMNQTNRSIERHGYSIQVNPRDINLFYVKDSLRERIEKQGERFVVLHTDVSFSAGEIKKEVADHPERFSPNVVLRPLYESTILPDIAYVGGPGEIAYWLQLKEVFAVYNTFLPAIFPRMFSGVITKQQCVKLEKAHVTVAELFLSEFDLKQVVVSRSIQEEISIEAEAGKITAAFDTIASIAATVDGSLQSWAQAEKAKALKQLEDIEKKLRKAEERKHDDVIKSVLGIRDKILPNGKLQERQESVFTFLVNDAQLIEKLYQSLDPCTFNIQMCCYE”, the “soluble on expression in E. coli” value is reported as “not soluble”.
For “MTLENNMDKKLFCISTYGCQMNEEDSEKLSGMLKSQGYERTENKEEASIIIFNTCCVRENAENKVFGNLGQLKQLKKKNPNLVIAICGCMMQQVGMADKVLKTFPYVDIIFGTHNAHKFPEYLHRVLQEGVQVKEILNKEEGIVEGLPIDRKSDVKAFVTIMYGCNNFCTYCIVPYVRGRERSRKSEDIIKEIEELVSQGYKEITLLGQNVNSYGKGLEEDIDFAGLLRKVNEVKGLERVRFMTSHPKDLSDDVIMAIKECDKLCEQVHLPVQSGSSRILKEMNRHYDREYYLDLVKKIKSEIPDVTLTTDIIIGFPGETEEDFLDTLSLCEEVGYDSAFTFIYSRRNHTPADKMENQIPDDIKHDRFNRLVEAINKKVVIKNKEYEGKVVEVLVEGPSKNDETKLTGRTRNGKLVNFAGDEKLVGELVNLKIVRAQPFSLIGEIVE”, the “soluble on expression in E. coli” value was “soluble”.
In the case of “AAGKDFVVKGKDGWAIIAGYHWFDEWGRDTFISLEGLLLVDKQYDIAKEIILKYLNLEKRGMLPNNFISYNGEPVYRGVDISLWAINAIYKTYIYSRDKNFIRKVVDKVLDIIDWYSKGNGVIYNVDNLIFHKGAPRTWMDASYDSRIVTPREGAAVEINALWYNALRVTEFLLNELGEKAEYLSEKAESVKKSFAEKFISQDGLYDYINWDNIPDKSIRPNQIFSISLPFPIIDDKSIASKILTLIESKLLRQYGLSSLSREDPNYKPVYKGDRRSRESLPQWTHMALVTRRLC”, the “soluble on expression in E. coli” value is reported as “not soluble”.
For “MSFSADEVRFLAQSEREIAEMTADLDLSKKSMISDVATLRKHFGDFGRAVAELAGARRSAVGKLPQDWLMCQESAQQTTPPAVSAERARRLKTALGENVIVHDVTCSIGTEGHELIDAGLRYLGSDLDFSRTLMAAHNLQGKNALIFRADALQPASRGADVIIADPARRAGGKRITNPAQLLPPLPSLLDAWINQPLAVKCAPGLDFSEWPGLVSIASVDGGVKEACLYTTDLADGETREAIVIKDGLIDRITNFEDDATGQDLAAAPGEFIIDPDGAIVRAGLVRHYAVREQLWMLDERIAYLTGNRIPEGTSGFRFIEEVPLKKLKSAMAAHDAGAVEILVRGVDVDPDQLRKRLQLKGTKAMSVVITRIGSRGVALICGPRERA”, the “soluble on expression in E. coli” value was “not soluble”.
In the case of “MSLSTIREVAKLANVSIATVSRVLNNDTKYKMTEETKNRVLDAVTQLNYIPITTPRKKMTVTNSNICKDAKIGCILRVTKKGYNDPYYMSILAGVETQLREVGIELSFIKSAPILQDKSHLASTFSDSLDGLILMEPLNEDIYHYIKKRVPHVVGIDTLRDDIDDVGYDHLENGILATQHLIEKGHKEIGFIGGSGESQDIKDSKRYQGYVIAMHKAGLPIQKKWIIDCGWNEDECVAKVDALCKSNHYPTAFFAASDLMAMAAMKSFYTNGISVPKRVAVIGMSDIEMSQYSNPPLTTYHVPKEEIGRVATNLLLARIQGYETLPQKIILPTTFVERSSTEGHHHHHH”, the “soluble on expression in E. coli” value is reported as “soluble”.
For “MAVPPAYSDLGKSAKDIFSKGYGFGIVKLDLKTKSQNGVEFNTSGSTNTDTGKAAGSLETKYKLKDLGLSFNQKWNTDNMLTTEVSVEDQLAEGLKVALDTSFVPNTGKKSGKLKTSYKREFVNVSCDLDFEGPVVHSAAVLGYEGWLLGYLVAFDTAKSKLVQNNFALGYKTGDFQLHTNVNDGAEFGGSVYQKVSDQLETAVTLAWTAGSNNTRFGVAAKYQLDKDASLSAKVNNASLIGIGYTQSLRPGVKLTLSALVDGKNFNTGGHKVGLGFELEA”, the “soluble on expression in E. coli” value was “not soluble”.
In the case of “MGKLALAAKITHVPSMYLSELPGKNHGCRQGAIDGHKEISKRCREMGVDTIIVFDTHWLVNSAYHINCADHFEGVYTSNELPHFIRDMTYNYEGNPELGQLIAEEALKLGVRAKAHNIPSLKLEYGTLVPMRYMNEDKHFKVVSISAFCTVHDFADSRKLGEAILKAIEQYDGTVAVLASGSLSHRFIDDQRAEEGMNSYTREFDRQMDERVVKLWREGQFKEFCNMLPEYADYCYGEGNMHDTVMLLGMLGWDKYDGKVEFITELFPSSGTGQVNAVFPLPA”, the “soluble on expression in E. coli” value is reported as “not soluble”.
In the case of “MKVVAVGGGTGLSTLLKGLKNIDSFEITAVVSVTDEGGSSGKLRKELNVPPPGDVRNNIVALAKDEDLLAKLMSYRFSEGSFKGHSLGNLIIAALTKIEGSFSEAIRILERVLAIKGRVLPVSEDHARLVARFEDGEEVIGETNIVRKGGKIVEVRLDRPIDALPEVLEAIERADIIIFGPGSLYTSIITNVLVNGVKDAIKKSKAKKIYVCNLMTQPGETTGYRVSDHVKELERYLEQSVDFVLVNTRKPSEEVLERYRKEGSDFVEIDAENIQNTILAEPFLVEIVDPSDGQRKIRHDSVKLADVIERISRW”, the “soluble on expression in E. coli” value is reported as “soluble”.
For “MPNIKIFSGSSHQDLSQKIADRLGLELGKVVTKKFSNQETCVEIGESVRGEDVYIVQSGCGEINDNLMELLIMINACKIASASRVTAVIPCFPYARQDKKDKSRAPISAKLVANMLSVAGADHIITMDLHASQIQGFFDIPVDNLYAEPAVLKWIRENISEWRNCTIVSPDAGGAKRVTSIADRLNVDFALIHKERKKANEVDRMVLVGDVKDRVAILVDDMADTCGTICHAADKLLSAGATRVYAILTHGIFSGPAISRINNACFEAVVVTNTIPQEDKMKHCSKIQVIDISMILAEAIRRTHNGESVSYLFSHVPLLEHHHHHH”, the “soluble on expression in E. coli” value was “soluble”.
With “MEEINTKEVAQRITTELKRYSIPQAIFAQRVLCRSQGTLSDLLRNPKPWSKLKSGRETFRRMWKWLQEPEFQRMSALRLAACKRKEQEHGKDRGNTPKKPRLVFTDVQRRTLHAIFKENKRPSKELQITISQQLGLELSTVSNFFMNARRRSLDKWLEHHHHHH” the “soluble on expression in E. coli” value was “soluble”.
For “NIDSNKKILQEIKRYADEHEERYGRFPKTLIFAVQDLANSSSHADQIVDQARDIFGRGDSFVQKITGKVDRPLQRIREFRNRKEPGIAVTVDLLSTGVDVPDIEYIVFLRSMKSRILFEQMIGRGTRKGEH”, the “soluble on expression in E. coli” value was “not soluble”.
In the case of “MGSDKIHHHHHHMPAIELSNGEARLLARPDLGAGLTAFDVLHDGVWQAIFRRVDPSTAHPFALSNILLVPFSGRVSGGGFTFDGTFHALPRNVETELYPIHGNGFSAAWDVASLSADLLTLTLSAEGPGPFRYDATMSYRLQGAGLLMELSLVNRARIRLPYGAGFHPWFVREPDTTLHAPARGVWLEQSDHLPKAHDAIAAQADLDFNRPKPLPARWINNWFDGWDGKARIHWPSRGLAVDVDASEGLRQYVVFSPAAAADFFCFEPVTHPVDAFNLPGKAEAHGLKILEPDESLAVSARVAADFG”, the “soluble on expression in E. coli” value is reported as “not soluble”.
For “MIQAAKIKQLKSLDSDLEKAIGRISGGLYIITAQKGEVKGAMLASWVSQASFNPPGFTVAVAKDRAIESLMQVGDRFVLNILEEGNYQILMKHFLKRFPPGADRFAGVKTQTASNGSPILTDALAYLECEVASRMECSDHWIVYSQVTNGRVAKAEGLTAVHHRKVGNYYLEHHHHHH”, the “soluble on expression in E. coli” value was “soluble”.
In the case of “RDRSTIARIQFRLPDGSSFTNQFPSDAPLEEARQFAAQTVGNTYGNFSLATMFPRREFTREDYKRRLLDLELAPSASVVLLPAGRPATSIVHSSSGDILMID”, the “soluble on expression in E. coli” value is reported as “soluble”.
In the case of “AIAEPGSPAGAGAEAPAFYSERKLSRKQLKKLAKAEREYEEERRKELEAAQAVDTAQKRELARIESILRTHALRMEYVEPDGHCLFRALVRQLRPLIQSGLFDTYFPAADTETRSALLTWSTIPDEMEAVWLLRKTLASFIRRRGTEFFPFIVGELDPQGTLLDASDDPAERVAQYCARLEDGTLWGGQPELQAVALALRCRVFVFADPEILPNGMLVMGADDASTDTGAESVTALRVSFHKQFFSLGEHYHAVVPADDSRGDARDPRISAS”, the “soluble on expression in E. coli” value is reported as “soluble”.
In the case of “STGSKQRSQNRSKTPKNQEALRMANVAENSSSDQRQACKKHELYVSFRDLGWQDWIIAPEGYAAYYCEGECAFPLNSYMNATNHAIVQTLVHFINPETVPKPCCAPTQLNAISVLYFDDSSNVILKKYRNMVVRACGCH”, the “soluble on expression in E. coli” value is reported as “soluble”.
For “MGSDKIHHHHHHMKFAVSSKGDQVSDTLKSKIQAYLLDFDMELDENEPEIVISVGGDGTLLYAFHRYSDRLDKTAFVGVHTGHLGFYADWVPHEIEKLVLAIAKTPYHTVEYPLLEVIVTYHENEREERYLALNECTIKSIEGSLVADVEIKGQLFETFRGDGLCLSTPSGSTAYNKALGGAIIHPSIRAIQLAEMASINNRVFRTVGSPLLLPSHHDCMIKPRNEVDFQVTIDHLTLLHKDVKSIRCQVASEKVRFARFRPFPFWKRVQDSFIGKGE”, the “soluble on expression in E. coli” value was “not soluble”.
With “MSKKFVNKAEEAVDDALFGLVSSNSNVKFHKSCRRVVHITDLNPSHHVSLIAGGGSGHEPYAAGYVGKGLLTAAIAGNVFASPPSRNVQAALEATRGEAGAILFVINYTGDRLNFGLAAERFNASGGTARVVTIADDVAIDSPNSKVGRRGLAGAVLTIKIAGAMAWEGKSLDEIYETSQKVVSSMGTLGVSLYTGSLPGKNRETELPDDQIEVGLGIHGEPGKFRAQFGSANRIVHSLLDTLRSKMEMREGEKFVVLVNNLGSVSQLEMNIVNGEVLRYFEDHKIGITRFFSGIYMTSLDGHGVSVTILRADDSMLQYLDAPAAAPGWIPALSVQKCVDHQEISDSSSQGDLISEIPASGVTVNAQLVEACVGGVVDAMLESEKHLNQLDAYAGDGDCGSTFAGAAEAIRKQTSGLNYTHPETLLKQLSIIFEQTVGGTSGALYALMFSSAAQSFAQRSQRGEKIDRTSILEALDKANRAVQKYGGARVGDRTMVDGLDAMVEELRKGFSGNEESLDAIFEAAVKASEKAAKATASQTATVGRASYTSSEAQTKPDAGATAISLWLRACWTAYKSEK” the “soluble on expression in E. coli” value was “not soluble”.
